7 molecules from patent US20250269048A1 (BIVICTRIX, published 2025) can be followed below.

In test [1] the target is T1, human CD7 on cells (human, UniProt P09564 26-240).
T1 sequence (looked up): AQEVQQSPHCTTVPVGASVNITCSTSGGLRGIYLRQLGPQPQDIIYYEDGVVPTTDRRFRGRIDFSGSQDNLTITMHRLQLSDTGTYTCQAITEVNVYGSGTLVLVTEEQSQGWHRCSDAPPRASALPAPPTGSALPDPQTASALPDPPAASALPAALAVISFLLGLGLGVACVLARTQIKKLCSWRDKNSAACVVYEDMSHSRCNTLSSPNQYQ
Description: cell-based or functional assay.

Test [2] addresses human CD33 on cells (human, UniProt P20138 18-364). Description: cell-based or functional assay.

Sequence of human CD33 on cells (P20138 18-364): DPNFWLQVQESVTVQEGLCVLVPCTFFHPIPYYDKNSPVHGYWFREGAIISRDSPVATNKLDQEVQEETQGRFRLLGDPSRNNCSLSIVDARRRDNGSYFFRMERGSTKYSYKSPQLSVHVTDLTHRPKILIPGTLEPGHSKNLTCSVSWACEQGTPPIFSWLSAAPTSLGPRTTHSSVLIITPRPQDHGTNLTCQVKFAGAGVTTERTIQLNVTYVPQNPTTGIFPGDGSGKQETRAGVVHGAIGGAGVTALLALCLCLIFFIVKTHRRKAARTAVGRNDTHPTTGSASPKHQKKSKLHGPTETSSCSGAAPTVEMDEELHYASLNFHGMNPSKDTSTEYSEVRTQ

B1: BVX100-MMAE (bispecific antibody)
heavy: QVQLQESGAELVKPGASVKLSCKASGYTFTSYWMHWVKQRPGQGLEWIGKINPSNGRTNYNEKFKSKATLTVDKSSSTAYMQLSSLTSEDSAVYYCARGGVYYDLYYYALDYWGQGTTVTVSSASTKGPSVFPLAPSSKSTSGGTAALGCLVKDYFPEPVTVSWNSGALTSGVHTFPAVLQSSGLYSLSSVVTVPSSSLGTQTYCCNVNHKPSNTKVDKKVEPKSCDKT
light: DIELTQSPATLSVTPGDSVSLSCRASQSISNNLHWYQQKSHESPRLLIKSASQSISGIPSRFSGSGSGTDFTLSINSVETEDFGMYFCQQSNSWPYTFGGGTKLEIKRTVAAPSVFIFPPSDEQLKSGTASVVCLLNNFYPREAKVQWKVDNALQSGNSQESVTEQDSKDSTYSLSSTLTLSKADYEKHKVYACEVTHQGLSSPVTKSFNRGEC
VH: EVQLVQSGAEVKKPGSSVKVSCKASGYTITDSNIHWVRQAPGQSLEWIGYIYPYNGGTDYNQKFKNRATLTVDNPTNTAYMELSSLRSEDTAFYYCVNGNPWLAYWGQGTLVTVSS
VL: DIQLTQSPSTLSASVGDRVTIICRASESLDNYGIRFLTWFQQKPGKAPKLLMYAASNQGSGVPSRFSGSGSGTEFTLTISSLQPDDFATYYCQQTKEVPWSFGQGTKLEIK
In the case of B1, the “EC50 (nM), cytotoxicity (MTS, 96 h) on Jurkat cells (CD7+/CD33-)” value (“EC50 (nM), cytotoxicity … (CD7+/CD33-)” for short) in test [1] came out at 0.92 nM. In test [2], the “EC50 (nM), cytotoxicity (MTS, 96 h) on MV4.11 cells (CD7-/CD33+)” value (shortened to “EC50 (nM) … on MV4.11 cells (CD7-/CD33+)”) is 10.8 nM and the “EC50 (nM), cytotoxicity (MTS, 96 h) on SHI-1 cells (CD7-/CD33+)” value (“EC50 (nM) … on SHI-1 cells (CD7-/CD33+)” below) turned out to be 2.26 nM.

B2: BVX120-MMAE (bispecific antibody)
heavy: QVQLQESGAELVKPGASVKLSCKASGYTFTSYWMHWVKQRPGQGLEWIGKINPSNGKTNYNEKFKSKATLTVDKSSSTAYMQLSSLTSEDSAVYYCARGGVYYDLYYYALDYWGQGTTVTVSSASTKGPSVFPLAPSSKSTSGGTAALGCLVKDYFPEPVTVSWNSGALTSGVHTFPAVLQSSGLYSLSSVVTVPSSSLGTQTYCCNVNHKPSNTKVDKKVEPKSCDKT
light: DIELTQSPATLSVTPGDSVSLSCRASQSISNNLHWYQQKSHESPRLLIKSASQSISGIPSRFSGSGSGTDFTLSINSVETEDFGMYFCQQSNSWPYTFGGGTKLEIKRTVAAPSVFIFPPSDEQLKSGTASVVCLLNNFYPREAKVQWKVDNALQSGNSQESVTEQDSKDSTYSLSSTLTLSKADYEKHKVYACEVTHQGLSSPVTKSFNRGEC
VH: EVQLVQSGAEVKKPGSSVKVSCKASGYTITDSNIHWVRQAPGQSLEWIGYIYPYNGGTDYNQKFKNRATLTVDNPTNTAYMELSSLRSEDTAFYYCVNGNPWLAYWGQGTLVTVSS
VL: DIQLTQSPSTLSASVGDRVTIICRASESLDNYGIRFLTWFQQKPGKAPKLLMYAASNQGSGVPSRFSGSGSGTEFTLTISSLQPDDFATYYCQQTKEVPWSFGQGTKLEIK
Turning to B2, the “EC50 (nM), cytotoxicity … (CD7+/CD33-)” value in test [1] amounted to 1.52 nM. Moreover, in test [2], the “EC50 (nM) … on MV4.11 cells (CD7-/CD33+)” value was 16.5 nM and the “EC50 (nM) … on SHI-1 cells (CD7-/CD33+)” value is 7.21 nM.

B3: BVX150-MMAE (bispecific antibody)
heavy: QVQLQESGAELVKPGASVKLSCKASGYTFTSYWMHWVKQRPGQGLEWIGKINPSNGKTNYNEKFKSKATLTVDKSSSTAYMQLSSLTSEDSAVYYCARGGVYYDLYYAALDYWGQGTTVTVSSASTKGPSVFPLAPSSKSTSGGTAALGCLVKDYFPEPVTVSWNSGALTSGVHTFPAVLQSSGLYSLSSVVTVPSSSLGTQTYCCNVNHKPSNTKVDKKVEPKSCDKT
light: DIELTQSPATLSVTPGDSVSLSCRASQSISNNLHWYQQKSHESPRLLIKSASQSISGIPSRFSGSGSGTDFTLSINSVETEDFGMYFCQQSNSWPYTFGGGTKLEIKRTVAAPSVFIFPPSDEQLKSGTASVVCLLNNFYPREAKVQWKVDNALQSGNSQESVTEQDSKDSTYSLSSTLTLSKADYEKHKVYACEVTHQGLSSPVTKSFNRGEC
VH: EVQLVQSGAEVKKPGSSVKVSCKASGYTITDSNIHWVRQAPGQSLEWIGYIYPYNGGTDYNQKFKNRATLTVDNPTNTAYMELSSLRSEDTAFYYCVNGNPWLAYWGQGTLVTVSS
VL: DIQLTQSPSTLSASVGDRVTIICRASESLDNYGIRFLTWFQQKPGKAPKLLMYAASNQGSGVPSRFSGSGSGTEFTLTISSLQPDDFATYYCQQTKEVPWSFGQGTKLEIK
On to B3, for which, in test [1], the “EC50 (nM), cytotoxicity … (CD7+/CD33-)” value was 1.6 nM. Besides, in test [2], the “EC50 (nM) … on MV4.11 cells (CD7-/CD33+)” value came out at 9.19 nM and the “EC50 (nM) … on SHI-1 cells (CD7-/CD33+)” value was 5.23 nM.

B4: BVX160-MMAE (bispecific antibody)
heavy: QVQLQESGAELVKPGASVKLSCKASGYTFTSYWMHWVKQRPGQGLEWIGKINPSNGRTNYNEKFKSKATLTVDKSSSTAYMQLSSLTSEDSAVYYCARGGVYYDLYYAALDYWGQGTTVTVSSASTKGPSVFPLAPSSKSTSGGTAALGCLVKDYFPEPVTVSWNSGALTSGVHTFPAVLQSSGLYSLSSVVTVPSSSLGTQTYCCNVNHKPSNTKVDKKVEPKSCDKT
light: DIELTQSPATLSVTPGDSVSLSCRASQSISNNLHWYQQKSHESPRLLIKSASQSISGIPSRFSGSGSGTDFTLSINSVETEDFGMYFCQQSNSWPYTFGGGTKLEIKRTVAAPSVFIFPPSDEQLKSGTASVVCLLNNFYPREAKVQWKVDNALQSGNSQESVTEQDSKDSTYSLSSTLTLSKADYEKHKVYACEVTHQGLSSPVTKSFNRGEC
VH: EVQLVQSGAEVKKPGSSVKVSCKASGYTITDSNIHWVRQAPGQSLEWIGYIYPYNGGTDYNQKFKNRATLTVDNPTNTAYMELSSLRSEDTAFYYCVNGNPWLAYWGQGTLVTVSS
VL: DIQLTQSPSTLSASVGDRVTIICRASESLDNYGIRFLTWFQQKPGKAPKLLMYAASNQGSGVPSRFSGSGSGTEFTLTISSLQPDDFATYYCQQTKEVPWSFGQGTKLEIK
As for B4, the “EC50 (nM), cytotoxicity … (CD7+/CD33-)” value in test [1] is 7.31 nM.

B5: BVX140-MMAE (bispecific antibody)
heavy: QVQLQESGAELVKPGASVKLSCKASGYTFTSYWMHWVKQRPGQGLEWIGKINPSNGGTNYNEKFKSKATLTVDKSSSTAYMQLSSLTSEDSAVYYCARGGVYYDLYYAALDYWGQGTTVTVSSASTKGPSVFPLAPSSKSTSGGTAALGCLVKDYFPEPVTVSWNSGALTSGVHTFPAVLQSSGLYSLSSVVTVPSSSLGTQTYCCNVNHKPSNTKVDKKVEPKSCDKT
light: DIELTQSPATLSVTPGDSVSLSCRASQSISNNLHWYQQKSHESPRLLIKSASQSISGIPSRFSGSGSGTDFTLSINSVETEDFGMYFCQQSNSWPYTFGGGTKLEIKRTVAAPSVFIFPPSDEQLKSGTASVVCLLNNFYPREAKVQWKVDNALQSGNSQESVTEQDSKDSTYSLSSTLTLSKADYEKHKVYACEVTHQGLSSPVTKSFNRGEC
VH: EVQLVQSGAEVKKPGSSVKVSCKASGYTITDSNIHWVRQAPGQSLEWIGYIYPYNGGTDYNQKFKNRATLTVDNPTNTAYMELSSLRSEDTAFYYCVNGNPWLAYWGQGTLVTVSS
VL: DIQLTQSPSTLSASVGDRVTIICRASESLDNYGIRFLTWFQQKPGKAPKLLMYAASNQGSGVPSRFSGSGSGTEFTLTISSLQPDDFATYYCQQTKEVPWSFGQGTKLEIK
Turning to B5, the “EC50 (nM), cytotoxicity … (CD7+/CD33-)” value in test [1] is 22.8 nM.

B6: BVX130-MMAE (bispecific antibody)
heavy: QVQLQESGAELVKPGASVKLSCKASGYTFTSYWMHWVKQRPGQGLEWIGKINPSNGRTNYNEKFKSKATLTVDKSSSTAYMQLSSLTSEDSAVYYCARGGVYYALYYYALDYWGQGTTVTVSSASTKGPSVFPLAPSSKSTSGGTAALGCLVKDYFPEPVTVSWNSGALTSGVHTFPAVLQSSGLYSLSSVVTVPSSSLGTQTYCCNVNHKPSNTKVDKKVEPKSCDKT
light: DIELTQSPATLSVTPGDSVSLSCRASQSISNNLHWYQQKSHESPRLLIKSASQSISGIPSRFSGSGSGTDFTLSINSVETEDFGMYFCQQSNSWPYTFGGGTKLEIKRTVAAPSVFIFPPSDEQLKSGTASVVCLLNNFYPREAKVQWKVDNALQSGNSQESVTEQDSKDSTYSLSSTLTLSKADYEKHKVYACEVTHQGLSSPVTKSFNRGEC
VH: EVQLVQSGAEVKKPGSSVKVSCKASGYTITDSNIHWVRQAPGQSLEWIGYIYPYNGGTDYNQKFKNRATLTVDNPTNTAYMELSSLRSEDTAFYYCVNGNPWLAYWGQGTLVTVSS
VL: DIQLTQSPSTLSASVGDRVTIICRASESLDNYGIRFLTWFQQKPGKAPKLLMYAASNQGSGVPSRFSGSGSGTEFTLTISSLQPDDFATYYCQQTKEVPWSFGQGTKLEIK
B6: in test [1], the “EC50 (nM), cytotoxicity … (CD7+/CD33-)” value was found to be 5.83 nM. In test [2], the “EC50 (nM) … on MV4.11 cells (CD7-/CD33+)” value came out at 24.1 nM and the “EC50 (nM) … on SHI-1 cells (CD7-/CD33+)” value amounted to 17.5 nM.

B7: BVX110-MMAE (bispecific antibody)
heavy: QVQLQESGAELVKPGASVKLSCKASGYTFTSYWMHWVKQRPGQGLEWIGKINPSNGGTNYNEKFKSKATLTVDKSSSTAYMQLSSLTSEDSAVYYCARGGVYYDLYYYALDYWGQGTTVTVSSASTKGPSVFPLAPSSKSTSGGTAALGCLVKDYFPEPVTVSWNSGALTSGVHTFPAVLQSSGLYSLSSVVTVPSSSLGTQTYCCNVNHKPSNTKVDKKVEPKSCDKT
light: DIELTQSPATLSVTPGDSVSLSCRASQSISNNLHWYQQKSHESPRLLIKSASQSISGIPSRFSGSGSGTDFTLSINSVETEDFGMYFCQQSNSWPYTFGGGTKLEIKRTVAAPSVFIFPPSDEQLKSGTASVVCLLNNFYPREAKVQWKVDNALQSGNSQESVTEQDSKDSTYSLSSTLTLSKADYEKHKVYACEVTHQGLSSPVTKSFNRGEC
VH: EVQLVQSGAEVKKPGSSVKVSCKASGYTITDSNIHWVRQAPGQSLEWIGYIYPYNGGTDYNQKFKNRATLTVDNPTNTAYMELSSLRSEDTAFYYCVNGNPWLAYWGQGTLVTVSS
VL: DIQLTQSPSTLSASVGDRVTIICRASESLDNYGIRFLTWFQQKPGKAPKLLMYAASNQGSGVPSRFSGSGSGTEFTLTISSLQPDDFATYYCQQTKEVPWSFGQGTKLEIK
In the case of B7, in test [1], the “EC50 (nM), cytotoxicity … (CD7+/CD33-)” value came to 4.52 nM. In test [2], the “EC50 (nM) … on MV4.11 cells (CD7-/CD33+)” value stood at 27 nM and the “EC50 (nM) … on SHI-1 cells (CD7-/CD33+)” value turned out to be 11.4 nM.
